Data on four substances can be found in the supplement of paper PMC5998384.

The subject of data set [1] is HeLa Kyoto. As to the kind of experiment: thermal stability score vs G1/S (z-score of summed log2 fold changes over temperatures); higher = more thermally stable than in G1/S.
The test system of data set [2] is HeLa Kyoto. Kind of data set: melting temperature (median over replicates), in situ; higher = more thermally stable.
Data set [3] has as its system HeLa Kyoto. Kind of data set: solubility in G1/S (NP-40 vs SDS abundance) (log2 ratio); higher = more soluble. The settings on record: cell cycle stage: G1/S.
Data set [4] deals with HeLa Kyoto. Kind of data set: solubility change mitosis vs G1/S (difference of NP-40 vs SDS log2 ratios) (log2 ratio difference); higher = more soluble in mitosis.
The mark [5] stands for this setting: cell cycle stage: early G1 (4.5 h after nocodazole release).
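Wherever melting temperature (median over replicates), in situ is given: HeLa Kyoto cells synchronized by double thymidine or nocodazole block, proteins quantified by TMT10plex mass spectrometry, three independent biological replicates.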
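Wherever solubility change mitosis vs G1/S (difference of NP-40 vs SDS log2 ratios) is given: synchronized HeLa Kyoto cells (double thymidine block for G1/S, nocodazole release for mitosis), protein amounts in NP-40 versus SDS lysates quantified by mass spectrometry, three biological replicates.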
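Wherever solubility in G1/S (NP-40 vs SDS abundance) is given: HeLa Kyoto cells arrested at G1/S by double thymidine block, proteins quantified by TMT10plex mass spectrometry in mild NP-40 versus SDS extracts, three biological replicates.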
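Wherever thermal stability score vs G1/S (z-score of summed log2 fold changes over temperatures) is given: synchronized HeLa Kyoto cells, proteins quantified by TMT10plex mass spectrometry, three biological replicates, mitosis taken 0.5 h after nocodazole release, G1/S directly after double thymidine block.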

MTR, sequence (chain, as listed by the source): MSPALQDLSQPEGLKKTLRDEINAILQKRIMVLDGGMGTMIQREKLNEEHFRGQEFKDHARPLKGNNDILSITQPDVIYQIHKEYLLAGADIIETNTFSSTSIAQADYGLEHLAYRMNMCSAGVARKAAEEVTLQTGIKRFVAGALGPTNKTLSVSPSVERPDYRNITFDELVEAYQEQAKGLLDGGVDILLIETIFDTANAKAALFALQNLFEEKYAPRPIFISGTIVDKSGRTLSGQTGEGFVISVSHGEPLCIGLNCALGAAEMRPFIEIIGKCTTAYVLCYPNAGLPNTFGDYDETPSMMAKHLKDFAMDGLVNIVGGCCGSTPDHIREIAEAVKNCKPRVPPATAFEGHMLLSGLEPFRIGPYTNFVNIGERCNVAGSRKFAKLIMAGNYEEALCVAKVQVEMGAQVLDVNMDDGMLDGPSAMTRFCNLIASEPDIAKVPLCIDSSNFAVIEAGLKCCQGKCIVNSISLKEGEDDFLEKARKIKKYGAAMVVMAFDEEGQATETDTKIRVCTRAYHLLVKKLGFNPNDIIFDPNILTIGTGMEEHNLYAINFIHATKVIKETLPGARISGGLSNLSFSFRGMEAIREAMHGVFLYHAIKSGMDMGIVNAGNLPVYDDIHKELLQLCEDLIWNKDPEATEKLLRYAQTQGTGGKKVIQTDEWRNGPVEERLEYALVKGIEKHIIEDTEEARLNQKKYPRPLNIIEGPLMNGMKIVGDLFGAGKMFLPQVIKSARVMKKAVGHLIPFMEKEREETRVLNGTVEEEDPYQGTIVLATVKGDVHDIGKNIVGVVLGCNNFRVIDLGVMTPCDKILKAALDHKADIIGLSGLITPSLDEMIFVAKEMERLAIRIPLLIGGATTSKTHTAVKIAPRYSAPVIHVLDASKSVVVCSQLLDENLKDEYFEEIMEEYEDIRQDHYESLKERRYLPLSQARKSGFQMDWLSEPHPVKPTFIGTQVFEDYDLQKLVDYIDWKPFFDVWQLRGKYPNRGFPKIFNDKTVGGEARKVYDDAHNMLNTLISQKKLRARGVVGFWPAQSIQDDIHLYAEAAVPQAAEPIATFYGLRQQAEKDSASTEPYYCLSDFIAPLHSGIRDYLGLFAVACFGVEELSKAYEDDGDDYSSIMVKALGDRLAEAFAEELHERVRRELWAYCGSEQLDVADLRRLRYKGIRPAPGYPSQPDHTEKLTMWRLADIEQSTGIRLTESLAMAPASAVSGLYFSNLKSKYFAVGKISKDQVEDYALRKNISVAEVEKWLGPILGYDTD

Consider “MTPSQVAFEIRGTLLPGEVFAICGSCDALGNWNPQNAVALLPENDTGESMLWKATIVLSRGVSVQYRYFKGYFLEPKTIGGPCQVIVHKWETHLQPRSITPLESEIIIDDGQFGIHNGVETLDSGWLTCQTEIRLRLHYSEKPPVSITKKKLKKSRFRVKLTLEGLEEDDDDRVSPTVLHKMSNSLEISLISDNEFKCRHSQPECGYGLQPDRWTEYSIQTMEPDNLELIFDFFEEDLSEHVVQGDALPGHVGTACLLSSTIAESGKSAGILTLPIMSRNSRKTIGKVRVDYIIIKPLPGYSCDMKSSFSKYWKPRIPLDVGHRGAGNSTTTAQLAKVQENTIASLRNAASHGAAFVEFDVHLSKDFVPVVYHDLTCCLTMKKKFDADPVELFEIPVKELTFDQLQLLKLTHVTALKSKDRKESVVQEENSFSENQPFPSLKMVLESLPEDVGFNIEIKWICQQRDGMWDGNLSTYFDMNLFLDIILKTVLENSGKRRIVFSSFDADICTMVRQKQNKYPILFLTQGKSEIYPELMDLRSRTTPIAMSFAQFENLLGINVHTEDLLRNPSYIQEAKAKGLVIFCWGDDTNDPENRRKLKELGVNGLIYDRIYDWMPEQPNIFQVEQLERLKQELPELKSCLCPTVSRFVPSSLCGESDIHVDANGIDNVENA [GPCPD1]”, for which the thermal stability score with HeLa Kyoto [1] (setting [5]) is -0.29; with HeLa Kyoto [1] (cell cycle stage: mitosis), -0.26. In addition, the values for the melting temperature in the data set on HeLa Kyoto [2] (cell cycle stage: G1/S) and with HeLa Kyoto [2] (cell cycle stage: mitosis) were 50 °C and 50.6 °C, respectively. In addition, the “solubility in G1/S (log2)” value with HeLa Kyoto [3] is 0.0477. Besides, the “solubility change mitosis (log2)” value with HeLa Kyoto [4] is -0.12.

Take “MTQAEIKLCSLLLQEHFGEIVEKIGVHLIRTGSQPLRVIAHDTGTSLDQVKKALCVLVQHNLVSYQVHKRGVVEYEAQCSRVLRMLRYPRYIYTTKTLYSDTGELIVEELLLNGKLTMSAVVKKVADRLTETMEDGKTMDYAEVSNTFVRLADTHFVQRCPSVPTTENSDPGPPPPAPTLVINEKDMYLVPKLSLIGKGKRRRSSDEDAAGEPKAKRPKYTTDNKEPIPDDGIYWQANLDRFHQHFRDQAIVSAVANRMDQTSSEIVRTMLRMSEITTSSSAPFTQPLSSNEIFRSLPVGYNISKQVLDQYLTLLADDPLEFVGKSGDSGGGMYVINLHKALASLATATLESVVQERFGSRCARIFRLVLQKKHIEQKQVEDFAMIPAKEAKDMLYKMLSENFMSLQEIPKTPDHAPSRTFYLYTVNILSAARMLLHRCYKSIANLIERRQFETKENKRLLEKSQRVEAIIASMQATGAEEAQLQEIEEMITAPERQQLETLKRNVNKLDASEIQVDETIFLLESYIECTMKRQ [POLR3C]”: the thermal stability score was found to be 1.65 in the data set with HeLa Kyoto [1] (setting [5]) and 1.67 in the data set on HeLa Kyoto [1] (cell cycle stage: mitosis). Further, the results for the melting temperature in the data set with HeLa Kyoto [2] (cell cycle stage: G1/S) and in the data set with HeLa Kyoto [2] (cell cycle stage: mitosis) were 50.5 °C and 51.1 °C, respectively. Moreover, the “solubility in G1/S (log2)” value in the data set with HeLa Kyoto [3] came to 0.132. For the same substance, the “solubility change mitosis (log2)” value with HeLa Kyoto [4] was -0.0973.

Turning to MTR, the values for the thermal stability score in the data set on HeLa Kyoto [1] (setting [5]) and in the data set with HeLa Kyoto [1] (cell cycle stage: mitosis) were -0.177 and 0.37, respectively. Also, the melting temperature in the data set on HeLa Kyoto [2] (cell cycle stage: G1/S) worked out at 48.6 °C; in the data set on HeLa Kyoto [2] (cell cycle stage: mitosis) it was 49.9 °C. Moreover, in the data set with HeLa Kyoto [3], the “solubility in G1/S (log2)” value stood at 0.00491. Also, in the data set on HeLa Kyoto [4], the “solubility change mitosis (log2)” value was -0.144.

For the substance “MTSKQAMSSNEQERLLCYNGEVLVFQLSKGNFADKEPTKTPILHVRRMVFDRGTKVFVQKSTGFFTIKEENSHLKIMCCNCVSDFRTGINLPYIVIEKNKKNNVFEYFLLILHSTNKFEMRLSFKLGYEMKDGLRVLNGPLILWRHVKAFFFISSQTGKVVSVSGNFSSIQWAGEIENLGMVLLGLKECCLSEEECTQEPSKSDYAIWNTKFCVYSLESQEVLSDIYIIPPAYSSVVTYVHICATEIIKNQLRISLIALTRKNQLISFQNGTPKNVCQLPFGDPCAVQLMDSGGGNLFFVVSFISNNACAVWKESFQVAAKWEKLSLVLIDDFIGSGTEQVLLLFKDSLNSDCLTSFKITDLGKINYSSEPSDCNEDDLFEDKQENRYLVVPPLETGLKVCFSSFRELRQHLLLKEKIISKSYKALINLVQGKDDNTSSAEEKECLVPLCGEEENSVHILDEKLSDNFQDSEQLVEKIWYRVIDDSLVVGVKTTSSLKLSLNDVTLSLLMDQAHDSRFRLLKCQNRVIKLSTNPFPAPYLMPCEIGLEAKRVTLTPDSKKEESFVCEHPSKKECVQIITAVTSLSPLLTFSKFCCTVLLQIMERESGNCPKDRYVVCGRVFLSLEDLSTGKYLLTFPKKKPIEHMEDLFALLAAFHKSCFQITSPGYALNSMKVWLLEHMKCEIIKEFPEVYFCERPGSFYGTLFTWKQRTPFEGILIIYSRNQTVMFQCLHNLIRILPINCFLKNLKSGSENFLIDNMAFTLEKELVTLSSLSSAIAKHESNFMQRCEVSKGKSSVVAAALSDRRENIHPYRKELQREKKKMLQTNLKVSGALYREITLKVAEVQLKSDFAAQKLSNL [FANCB]”, the results for the thermal stability score in the data set with HeLa Kyoto [1] (setting [5]) and in the data set with HeLa Kyoto [1] (cell cycle stage: mitosis) were 1.37 and 0.274, respectively. The melting temperature was 53.7 °C in the data set on HeLa Kyoto [2] (cell cycle stage: G1/S) and 53.8 °C with HeLa Kyoto [2] (cell cycle stage: mitosis). In addition, the “solubility in G1/S (log2)” value in the data set on HeLa Kyoto [3] is -0.208. Also, the “solubility change mitosis (log2)” value in the data set on HeLa Kyoto [4] is -0.0928.
